This passage reports Kd results from US20030082561.

Holding throughout (test): EMSA
Background: Mobility shift assays separate free from complexed probe on a gel.

Series [1] deals with ZFP Clone 6 (6-finger) (artificial). The following applies: probe flanks not given; 0.1 mM ZnCl2, 100 mM NaCl, on ice.
The test system of series [2] is ZFP Clone 7 (6-finger) (artificial). The following applies: probe flanks not given; 0.1 mM ZnCl2, 100 mM NaCl, on ice.
Series [3] concerns ZFP Clone 5 (BCTV L1 6-finger) (artificial). The following applies: 10 mM Tris-HCl pH 7.5, 100 mM NaCl, 1 mM MgCl2, 0.1 mM ZnCl2, 1 mg/ml BSA, 10% glycerol, poly(dA-dT)2, on ice.

Some results are limits rather than exact numbers.

In series [1], “AGTAAGGTAGGAGATGATA (double strand) [Clone 6 target]” returned a Kd of less than 3 pM.
In turn, “TACGTGGCATTGGGTGCTC (double strand) [Clone 7 target]” showed a Kd in series [2] of less than 3 pM.
“TATATATATTGGGTGCTTTGGGTGCTCTATATATA (double strand) [L1 19-bp target probe]” yielded a dissociation constant (Kd) in series [3] of less than 3 pM.

By Kd is commonly meant the equilibrium constant for the complex coming apart. Low readings indicate higher affinity, high ones lower affinity.
